Data: patent US20200317768A1 (published 2020)

Tests used:
Assay in all cases: SPR; KD of SG1 divided by KD of variant;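 note: relative to parent M103205H795-SG1 carrying the SG1 human heavy chain constant region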
[1] = target: T1, cynomolgus monkey FcγRIIa1 extracellular domain, C-terminal His-tag (cynomolgus monkey)
T1 construct: also called cyno FcγRIIa1; FcgRIIa1; not shown: His-tag added to the C-terminus
T1 chain: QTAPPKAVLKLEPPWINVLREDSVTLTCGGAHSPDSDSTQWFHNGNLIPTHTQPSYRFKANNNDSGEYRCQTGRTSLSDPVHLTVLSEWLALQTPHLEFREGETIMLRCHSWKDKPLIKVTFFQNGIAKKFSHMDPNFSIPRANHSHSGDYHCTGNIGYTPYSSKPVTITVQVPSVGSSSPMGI
Method: (§1) The kinetic analysis of interactions between these antibodies and FcγR was carried out using BIACORE® T200 or BIACORE® 4000 (GE Healthcare). HBS-EP+ (GE Healthcare) was used as the running buffer, and the measurement temperature was set to 25° C. A chip produced by immobilizing Protein A. Protein A/G or mouse anti-human IgG kappa light chain (BD Biosciences) onto a Series S Sensor Chip CM4 or CM5 (GE Healthcare) by the amine-coupling method was used. […] After the measurement, the antibody captured on the chip was washed off by allowing reaction with 10 mM glycine-HCl, pH1.5 and 25 mM NaOH so that the chip was regenerated and used repeatedly. The sensorgrams obtained as measurement results were analyzed by the 1:1 Langmuir binding model using the BIACORE® Evaluation Software to calculate the binding rate constant ka (L/mol/s) and dissociation rate constant kd (l/s), and the dissociation constant KD (mol/L) was calculated from these values. […] Regarding such interactions, KD values were calculated using the following 1:1 binding model described in BIACORE® T100 Software Handbook BR1006-48 Edition AE.

[2] = target: T2, cynomolgus monkey FcγRIIa2 extracellular domain, C-terminal His-tag (cynomolgus monkey)
T2 construct: also called cyno FcγRIIa2; FcgRIIa2; not shown: His-tag added to the C-terminus
T2 chain: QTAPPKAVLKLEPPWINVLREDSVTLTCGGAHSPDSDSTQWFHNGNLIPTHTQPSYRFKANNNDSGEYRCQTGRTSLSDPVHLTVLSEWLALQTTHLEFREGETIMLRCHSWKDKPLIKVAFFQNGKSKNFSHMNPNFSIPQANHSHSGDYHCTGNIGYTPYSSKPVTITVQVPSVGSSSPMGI
Method: as §1

[3] = target: T3, cynomolgus monkey FcγRIIa3 extracellular domain, C-terminal His-tag (cynomolgus monkey)
T3 construct: also called cyno FcγRIIa3; FcgRIIa3; not shown: His-tag added to the C-terminus
T3 chain: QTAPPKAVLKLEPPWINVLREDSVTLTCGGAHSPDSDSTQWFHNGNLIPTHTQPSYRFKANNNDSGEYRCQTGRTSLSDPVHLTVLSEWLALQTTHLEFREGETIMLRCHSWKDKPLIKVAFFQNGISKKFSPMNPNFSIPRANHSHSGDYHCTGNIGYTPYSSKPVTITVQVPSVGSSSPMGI
Method: as §1

[4] = target: T4, cynomolgus monkey FcγRIIb extracellular domain, C-terminal His-tag (cynomolgus monkey)
T4 construct: also called cyno FcγRIIb; cynoFcγRIIb; not shown: His-tag added to the C-terminus
T4 chain: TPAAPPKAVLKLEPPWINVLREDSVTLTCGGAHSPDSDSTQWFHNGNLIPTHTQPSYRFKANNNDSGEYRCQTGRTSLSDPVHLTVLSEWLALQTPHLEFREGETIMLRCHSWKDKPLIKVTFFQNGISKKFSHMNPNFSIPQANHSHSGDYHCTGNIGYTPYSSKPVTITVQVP
Method: as §1

[5] = target: T5, cynomolgus monkey FcγRIIIaS extracellular domain, C-terminal His-tag (cynomolgus monkey, UniProt A3RFZ7 21-206 (rhesus entry))
T5 construct: also called cyno FcγRIIIaS; FcgRIIIaS; not shown: His-tag added to the C-terminus
T5 sequence (A3RFZ7 21-206): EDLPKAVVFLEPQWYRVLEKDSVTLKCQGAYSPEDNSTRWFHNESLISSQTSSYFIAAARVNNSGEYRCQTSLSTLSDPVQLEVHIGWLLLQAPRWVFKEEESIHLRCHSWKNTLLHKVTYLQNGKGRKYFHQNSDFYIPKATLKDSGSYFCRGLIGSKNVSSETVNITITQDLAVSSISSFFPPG
Method: as §1

[6] = target: T6, human FcγRIIaH extracellular domain, C-terminal His-tag (human, UniProt P12318 34-217)
T6 construct: also called human FcγRIIa (type H); FcgRIIaH; not shown: His-tag added to the C-terminus
T6 sequence: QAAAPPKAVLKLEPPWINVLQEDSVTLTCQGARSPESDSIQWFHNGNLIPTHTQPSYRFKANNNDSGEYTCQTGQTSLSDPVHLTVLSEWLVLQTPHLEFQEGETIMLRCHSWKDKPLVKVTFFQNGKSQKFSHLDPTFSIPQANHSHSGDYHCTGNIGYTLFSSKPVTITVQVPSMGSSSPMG
Method: as §1

[7] = target: T7, human FcγRIIaR extracellular domain, C-terminal His-tag (human, UniProt P12318 34-217)
T7 construct: also called human FcγRIIa (type R); FcgRIIaR; not shown: His-tag added to the C-terminus
T7 chain: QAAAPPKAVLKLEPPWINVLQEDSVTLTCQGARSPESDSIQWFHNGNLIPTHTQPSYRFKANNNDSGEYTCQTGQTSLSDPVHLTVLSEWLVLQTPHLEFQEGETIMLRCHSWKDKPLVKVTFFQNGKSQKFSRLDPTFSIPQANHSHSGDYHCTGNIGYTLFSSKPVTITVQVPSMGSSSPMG
Method: as §1

[8] = target: T8, human FcγRIIIaV extracellular domain, C-terminal His-tag (human, UniProt P08637 17-208)
T8 construct: also called FcgRIIIaV; not shown: His-tag added to the C-terminus
T8 sequence (P08637 17-208 F176V): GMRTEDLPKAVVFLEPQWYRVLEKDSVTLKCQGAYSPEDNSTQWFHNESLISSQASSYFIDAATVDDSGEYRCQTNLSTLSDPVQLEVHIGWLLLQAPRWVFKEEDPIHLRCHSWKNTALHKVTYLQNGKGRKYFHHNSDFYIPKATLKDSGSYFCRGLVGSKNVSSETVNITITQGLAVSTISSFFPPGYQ
Method: as §1

| Binder | KD fold (SG1 = 1) [1] | KD fold (SG1 = 1) [2] | KD fold (SG1 = 1) [3] | KD fold (SG1 = 1) [4] | KD fold (SG1 = 1) [5] | KD fold (SG1 = 1) [6] | KD fold (SG1 = 1) [7] | KD fold (SG1 = 1) [8] |
| --- | --- | --- | --- | --- | --- | --- | --- | --- |
| MS1032LO06-MY352 (M103205H795-MY352/M103202L889-SK1) (antibody, human IgG1, kappa, name in EU numbering, Printed substitutions: G236N/H268D/Q311R/A330K/D413R (EU numbering); also called MS103205H795-MY352) heavy: QVTLKESGPVLVKPTETLTLTCTVSGIDLSHDDISWVRQAPGKGLEWVGIISYAGSTYYASWAKGRLTISKDTSKNQVVLTMTNMDPVDTATYYCARGVPAYSHGGDLWGQGTLVTVSSASTKGPSVFPLAPSSKSTSGGTAALGCLVKDYFPEPVTVSWNSGALTSGVHTFPAVLQSSGLYSLSSVVTVPSSSLGTQTYICNVNHKPSNTKVDKKVEPKSCDKTHTCPPCPAPELLNGPSVFLFPPKPKDTLMISRTPEVTCVVVDVSDEDPEVKFNWYVDGVEVHNAKTKPREEQYNSTYRVVSVLTVLHRDWLNGKEYKCKVSNKALPKPIEKTISKAKGQPREPQVYTLPPSREEMTKNQVSLTCLVKGFYPSDIAVEWESNGQPENNYKTTPPVLDSDGSFFLYSKLTVRKSRWQQGNVFSCSVMHEALHNHYTQKSLSLSP light: DIVMTQSPATLSLSPGERATLSCTSSQSVYHANWLSWFQQKPGQPPKLLIYWASTLAYGVPSRFSGSGSGTDFTLTISSLQPEDAATYYCAGGYGGGRYAFGQGTKVEIKRTVAAPSVFIFPPSDEQLKSGTASVVCLLNNFYPREAKVQWKVDNALQSGNSQESVTEQDSKDSTYSLSSTLTLSKADYEKHKVYACEVTHQGLSSPVTKSFNRGEC | 2.7 fold | 3.5 fold | 3.9 fold | 4.7 fold | 0.07 fold | 0.7 fold | 0.6 fold | 0.06 fold |
| MS1032LO06-PK55 (M103205H795-PK55/M103202L889-SK1) (antibody, human IgG1, kappa, CH PK55 = SG1 with G236N/H268D/Q311R/A330K/P343R (EU numbering); also called MS103205H795-PK55) heavy: QVTLKESGPVLVKPTETLTLTCTVSGIDLSHDDISWVRQAPGKGLEWVGIISYAGSTYYASWAKGRLTISKDTSKNQVVLTMTNMDPVDTATYYCARGVPAYSHGGDLWGQGTLVTVSSASTKGPSVFPLAPSSKSTSGGTAALGCLVKDYFPEPVTVSWNSGALTSGVHTFPAVLQSSGLYSLSSVVTVPSSSLGTQTYICNVNHKPSNTKVDKKVEPKSCDKTHTCPPCPAPELLNGPSVFLFPPKPKDTLMISRTPEVTCVVVDVSDEDPEVKFNWYVDGVEVHNAKTKPREEQYNSTYRVVSVLTVLHRDWLNGKEYKCKVSNKALPKPIEKTISKAKGQRREPQVYTLPPSREEMTKNQVSLTCLVKGFYPSDIAVEWESNGQPENNYKTTPPVLDSDGSFFLYSKLTVDKSRWQQGNVFSCSVMHEALHNHYTQKSLSLSP light: DIVMTQSPATLSLSPGERATLSCTSSQSVYHANWLSWFQQKPGQPPKLLIYWASTLAYGVPSRFSGSGSGTDFTLTISSLQPEDAATYYCAGGYGGGRYAFGQGTKVEIKRTVAAPSVFIFPPSDEQLKSGTASVVCLLNNFYPREAKVQWKVDNALQSGNSQESVTEQDSKDSTYSLSSTLTLSKADYEKHKVYACEVTHQGLSSPVTKSFNRGEC | 3.3 fold | 4.1 fold | 4.3 fold | 5.4 fold | 0.08 fold | 1.1 fold | 0.7 fold | 0.05 fold |
| MS1032LO06-PK57 (M103205H795-PK57/M103202L889-SK1) (antibody, human IgG1, kappa, CH PK57 = SG1 with G236N/H268D/Q311R/A330K/N384R/D413R (EU numbering); also called MS103205H795-PK57) heavy: QVTLKESGPVLVKPTETLTLTCTVSGIDLSHDDISWVRQAPGKGLEWVGIISYAGSTYYASWAKGRLTISKDTSKNQVVLTMTNMDPVDTATYYCARGVPAYSHGGDLWGQGTLVTVSSASTKGPSVFPLAPSSKSTSGGTAALGCLVKDYFPEPVTVSWNSGALTSGVHTFPAVLQSSGLYSLSSVVTVPSSSLGTQTYICNVNHKPSNTKVDKKVEPKSCDKTHTCPPCPAPELLNGPSVFLFPPKPKDTLMISRTPEVTCVVVDVSDEDPEVKFNWYVDGVEVHNAKTKPREEQYNSTYRVVSVLTVLHRDWLNGKEYKCKVSNKALPKPIEKTISKAKGQPREPQVYTLPPSREEMTKNQVSLTCLVKGFYPSDIAVEWESRGQPENNYKTTPPVLDSDGSFFLYSKLTVRKSRWQQGNVFSCSVMHEALHNHYTQKSLSLSP light: DIVMTQSPATLSLSPGERATLSCTSSQSVYHANWLSWFQQKPGQPPKLLIYWASTLAYGVPSRFSGSGSGTDFTLTISSLQPEDAATYYCAGGYGGGRYAFGQGTKVEIKRTVAAPSVFIFPPSDEQLKSGTASVVCLLNNFYPREAKVQWKVDNALQSGNSQESVTEQDSKDSTYSLSSTLTLSKADYEKHKVYACEVTHQGLSSPVTKSFNRGEC | 2.5 fold | 2.8 fold | 2.7 fold | 3.8 fold | 0.06 fold | 0.7 fold | 0.5 fold | 0.03 fold |
| MS1032LO06-PK56 (M103205H795-PK56/M103202L889-SK1) (antibody, human IgG1, kappa, CH PK56 = SG1 with G236N/H268D/Q311R/A330K/P343R/D413R (EU numbering); also called MS103205H795-PK56) heavy: QVTLKESGPVLVKPTETLTLTCTVSGIDLSHDDISWVRQAPGKGLEWVGIISYAGSTYYASWAKGRLTISKDTSKNQVVLTMTNMDPVDTATYYCARGVPAYSHGGDLWGQGTLVTVSSASTKGPSVFPLAPSSKSTSGGTAALGCLVKDYFPEPVTVSWNSGALTSGVHTFPAVLQSSGLYSLSSVVTVPSSSLGTQTYICNVNHKPSNTKVDKKVEPKSCDKTHTCPPCPAPELLNGPSVFLFPPKPKDTLMISRTPEVTCVVVDVSDEDPEVKFNWYVDGVEVHNAKTKPREEQYNSTYRVVSVLTVLHRDWLNGKEYKCKVSNKALPKPIEKTISKAKGQRREPQVYTLPPSREEMTKNQVSLTCLVKGFYPSDIAVEWESNGQPENNYKTTPPVLDSDGSFFLYSKLTVRKSRWQQGNVFSCSVMHEALHNHYTQKSLSLSP light: DIVMTQSPATLSLSPGERATLSCTSSQSVYHANWLSWFQQKPGQPPKLLIYWASTLAYGVPSRFSGSGSGTDFTLTISSLQPEDAATYYCAGGYGGGRYAFGQGTKVEIKRTVAAPSVFIFPPSDEQLKSGTASVVCLLNNFYPREAKVQWKVDNALQSGNSQESVTEQDSKDSTYSLSSTLTLSKADYEKHKVYACEVTHQGLSSPVTKSFNRGEC | 2.6 fold | 3.1 fold | 3.5 fold | 3.9 fold | 0.06 fold | 0.8 fold | 0.5 fold | 0.06 fold |
